Assay: soluble on expression in E. coli; label from the status in PepcDB or PDB records

Row | Sequence | soluble on expression in E. coli
1 | SSFQTSLPRLPVPAVKDTVNRYLQSVRPLMKEEDFKRMTALAQDFAVGLGPRLQWYLKLKSWWATNYVSDWWEEYIYLRGRGPLMVNSNYYAMDLLYILPTHIQAARAGNAIHAILLYRRKLDREEIKPIRLLGSTIPLCSAQWERMFNTSRIPGEETDTIQHMRDSKHIVVYHRGRYFKVWLYHDGRLLKPREMEQQMQRILDNTSEPQPGEARLAALTAGDRVPWARCRQAYFGRGKNKQSLDAVEKAAFFVTLDETEEGYRSEDPDTSMDSYAKSLLHGRCYDRWFDKSFTFVVFKNGKMGLNAEHSWADAPIVAHLWEYVMSIDSLQLGYAEDGHCKGDINPNIPYPTRLQWDIPGECQEVIETSLNTANLLANDVDFHSFPFVAFGKGIIKKCRTSPDAFVQLALQLAHYKDMGKFCLTYEASMTRLFREGRTETVRSCTTESCDFVRAMVDPAQTVEQRLKLFKLASEKHQHMYRLAMTGSGIDRHLFCLYVVSKYLAVESPFLKEVLSEPWRLSTSQTPQQQVELFDLENNPEYVSSGGGFGPVADDGYGVSYILVGENLINFHISSKFSCPETDSHRFGRHLKEAMTDIITLFGLSSNSKK | soluble
2 | SSGLSESKQTHVHLRNVDAATLQIIITYAYTGNLAMNDSTVEQLYETACFLQVEDVLQRCREYLIKKINAENCVRLLSFADLFSCEELKQSAKRMVEHKFTAVYHQDAFMQLSHDLLIDILSSDNLNVEKEETVREAAMLWLEYNTESRSQYLSSVLSQIRIDALSEVTQRAWFQGLPPNDKSVVVQGLYKSMPKFFKPRLGMTKEEMMIFIEASSENPCSLYSSVCYSPQAEKVYKLCSPPADLHKVGTRCNS | soluble
3 | SSIEFLAVEKQKIIAKETLELYAKIAGRIGMYPVKTQLADLSFKVLDPKNFNNTLSKINQQKVFYDNEWGNFKKQLEEMLEQNQIEYRLE | not soluble
4 | SSSGLNSEKVAALIQKLNSDPQFVLAQNVGTTHDLLDICLKRATVQRAQHVFQHAVPQEGKPITNQKSSGRCWIFSCLNVMRLPFMKKLNIEEFEFSQSYLFFWDKVERCYFFLSAFVDTAQRKEPEDGRLVQFLLMNPANDGGQWDMLVNIVEKYGVIPKKCFPESYTTEATRRMNDILNHKMREFCIRLRNLVHSGATKGEISATQDVMMEEIFRVVCICLGNPPETFTWEYRDKDKNYQKIGPITPLEFYREHVKPLFNMEDKICLVNDPRPQHKHNKLYTVEYLSNMVGGRKTLYNNQPIDFLKKMVAASIKDGEAVWFGCDVGKHFNSKLGLSDMNLYDHELVFGVSLKNMNKAERLTFGESLMTHAMTFTAVSEKDDQDGAFTKWRVENSWGEDHGHKGYLCMTDEWFSEYVYEVVVDRKHVPEEVLAVLEQEPIILPAWDPMGALA | soluble
5 | SSTDQGTNPADTDDLTPTTLSLAGDFPKATEEQWEREVEKVLNRGRPPEKQLTFAECLKRLTVHTVDGIDIVPMYRPKDAPKKLGYPGVAPFTRGTTVRNGDMDAWDVRALHEDPDEKFTRKAILEGLERGVTSLLLRVDPDAIAPEHLDEVLSDVLLEMTKVEVFSRYDQGAAAEALVSVYERSDKPAKDLALNLGLDPIGFAALQGTEPDLTVLGDWVRRLAKFSPDSRAVTIDANIYHNAGAGDVAELAWALATGAEYVRALVEQGFTATEAFDTINFRVTATHDQFLTIARLRALREAWARIGEVFGVDEDKRGARQNAITSWRELTREDPYVNILRGSIATFSASVGGAESITTLPFTQALGLPEDDFPLRIARNTGIVLAEEVNIGRVNDPAGGSYYVESLTRSLADAAWKEFQEVEKLGGMSKAVMTEHVTKVLDACNAERAKRLANRKQPITAVSEFPMIGARSIETKPFPAAPARKGLAWHRDSEVFEQLMDRSTSVSERPKVFLACLGTRRDFGGREGFSSPVWHIAGIDTPQVEGGTTAEIVEAFKKSGAQVADLCSSAKVYAQQGLEVAKALKAAGAKALYLSGAFKEFGDDAAEAEKLIDGRLFMGMDVVDTLSSTLDILGVAK | soluble
6 | SSWKPRSQQPDAPLGTGANRDLELPWLEQQGPASHHRRQLGPQGPPHLVADPSKKQGPWLEEEEEAYGWMDFGRRSAEDEN | soluble
7 | STNPKPQRKTKRNTNRRPQDVKFPGGGQIVGGVYLLPRRGPRLG | soluble
8 | STPGPGASAPNSPMALLTLNCEKEMDDVIEDIISLESSYSDDILGFMDAGLQMTNTIPVSANLLDMYSNHALPPAGVSISNSCPSSLPAVKRELSVTPSPGMMHIMDKAGPCGKFDSYQRPDGFPVEVRALAKERQKKDNHNLIERRRRFNINDRIKELGTLIPKSNDPDMRWNKGTILKASVDYIRKLQKEQQNAKELENRQKRLEHANRHLLLRIQELEMQARAHGLTVVASSSLYSAELVARAIKQEPGMGDCTSNLYPHLPSPDMSRPTTLDLNNGTISYNDSPTEDGEPGVYDSPNKASTKLEDMLMDNTLSPVGSSDPLLSSGSPVPSNSSGSSSMDEHDNGC | not soluble
9 | STTALCRMNMILHNSATADIAKGGSSTLSNPLFTTENGMLKTFDYVVANPPFS | not soluble
10 | STTGIIMENVTAFWEEGFGELLEKVQQSNGDRKHSSDENNVSFSHLCLVGNPVLKNINLNIEKGEMLAITGSTGSGKTSLLMLILGELEASEGIIKHSGRVSFCSQFSWIMPGTIKENIIFGVSYDEYRYKSVVKACQLQQDITKFAEQDNTVLGEGGVTLSGGQRARISLARAVYKDADLYLLDSPFGYLDVFTEEQVFESCVCKLMANKTRILVTSKMEHLRKADKILILHQGSSYFYGTFSELQSLRPDFSSKLMGYDTFDQFTEERRSSILTETLRRFSVDDSSAPWSKPKQSFRQTGEVGEKRKNSILNSFSSVRKISIVQKTPLCIDGESDDLQEKRLSLVPDSEQGEAALPRSNMIATGPTFPGRRRQSVLDLMTFTPNSGSSNLQRTRTSIRKISLVPQISLNEVDVYSRRLSQDSTLNITEEINEEDLKECFLDDVIKIPPVTTWNTYLRYFTLHKG | soluble
11 | SVEVITHPGVNSNYLSKNLLRSIFGMRLRTWQDGLPVRVFVLPDDAPLHSTFTKQKLNIFPYQLRSAWDRMVYSGTGQAPFVVHTEEEMRARIASTPGAIGYLSGSMINDSVQVVHID | not soluble
12 | SVFPQQTGQLAELQPQDRAGARASWMPMFQRRRRRDTHFPICIFCCGCCHRSKCGMCCKT | not soluble
13 | SVSEIQLMHNLGKHLNSMERVEWLRKKLQDVHNF | soluble
14 | SVSGLAILYLRRRRAPLARLRQAIQRCEFFVCYQPIVSLSDGRCVGAEALVRWRQQDGTLILPDQFIPLAERSGLILPITDQVIAASMRELGPLLVADRSLHIAINVSVKDIESGRLLDVLALALQDTGLYRKQLWIEATERSFMDARAAREHIVRLREAGYAVVIDDFGTGYSNLQYLQQLPLDALKIDKSFIDTVGRDVTNTAVASHIIDIAKELGMRTIAEGVEREEQLVYLRARGVDMAQGWLFSSP | not soluble
15 | SYMYDRDGSLVSEIVSDHENRVLVPFNKIPEEVKQIFLTSEDRHFYEHKGFDFMGMVPPTASNVKDKKIDQGASTITQQLSRNLYLSHERSFSRKLTELAYSYQLEKKYTKNEILEAYLNTIYFNNGVYGVGSAAQFYFSKPLKSLTVGEMAFICAIPNNPTLYDPLKHF | not soluble
16 | SYSYVYIYMPTWREDKRNILEIIDFDRLNQLCIKNNNLFLFRLHPNTEINLDMLVSYSNLRIIDSSCDIYPILPFTDVLITDYSSIYYDYMLIPNKQILLFPFDEEEYCTFNRDLAFDYKIYTPGIRIYSFEALLEIVESKKNLNIKEIKVIKKLFWKGRNESIIDRIIN | not soluble
17 | TDAPANQGFIIGVTGCPAGVAHTYLAAEALEKGAAAMGYEIKVETNGSIGVKNSPTAEEIERADAIIVACDKQVDMNRFAGKRVVKTNVKAPIRDAQGLINEALNAPTY | not soluble
18 | TDIAGLTIEHVTGDYLNGFRIIPDNIKYKGVIVTFGGSDGTPAYEQAVQLAQEGYQVLALFFFGMPNQHPTLAEVPVEYYQEIESYISQHFSQPDKITVIGTSKGAEYALLLASLYDSIDNVVLYAPSSHIYAGLDFRNYSSSWSQNGKALPYLDVRSENSLKLFYNFLIKTPISYYHTYKQALDKDKNSEDKRIKVEKTKANILIFAGENDRMWPSAESARLIEKYQPNHTQVTIYKEAGHLFAGDGI | not soluble
19 | TDLSAQKRLAADVLDVGKNRVWFNPERQGDIADAITREDVRELVDEGAIQAKDKKGNSRGRARERQKKRAKGHQKGAGSRKGKAGARQNSKEDWESRIRAQRTKLRELRDEGTLSSSQYRDLYDKAGGGEFDSVADLERYIDANHGDA | soluble

— the DeepSol protein solubility set
